Patent US20190269786A1 (published 2019)

B1: huMOV19-14 conjugate (antibody, human IgG1, kappa, V domains shown)
VH: QVQLVQSGAEVVKPGASVKISCKASGYTFTGYFMNWVKQSPGQSLEWIGRIHPYDGDTFYNQKFQGKATLTVDKSSNTAHMELLSLTSEDFAVYYCTRYDGSRAMDYWGQGTTVTVSS
VL: DIVLTQSPLSLAVSLGQPAIISCKASQSVSFAGTSLMHWYHQKPGQQPRLLIYRASNLEAGVPDRFSGSGSKTDFTLTISPVEAEDAATYYCQQSREYPYTFGGGTKLEIKR
modifications: drug attachment sites not stated (see heavy chain); compound 14 (indolinobenzodiazepine dimer, Gly-Gly-Gly linker, NHS ester) conjugated to the antibody, average 3.0 per antibody; residues not stated
B2: huMOV19-sulfo-SPDB-107 conjugate (antibody, human IgG1, kappa, V domains shown)
VH: B1 VH
VL: B1 VL
modifications: drug attachment sites not stated (see heavy chain); compound 107 linked through sulfo-SPDB linker to the antibody, average 2.7 per antibody; residues not stated
B3: huMOV19-90 conjugate (antibody, human IgG1, kappa, V domains shown)
VH: B1 VH
VL: B1 VL
modifications: drug attachment sites not stated (see heavy chain); compound 90 (indolinobenzodiazepine dimer, L-Ala-L-Ala linker, NHS ester) conjugated to the antibody, average 2.7 per antibody; residues not stated
B4: huML66-90 conjugate (antibody, human IgG1, kappa, V domains shown)
VH: QVQLQESGPGLVKPSETLSLTCTVSGLSLASNSVSWIRQPPGKGLEWMGVIWNHGGTDYNPSIKSRLSISRDTSKSQVFLKMNSLTAADTAMYFCVRKGGIYFDYWGQGVLVTVSS
VL: DTVLTQSPSLAVSPGERATISCRASESVSTLMHWYQQKPGQQPKLLIYLASHRESGVPARFSGSGSGTDFTLTIDPMEAEDTATYYCQQSRNDPWTFGQGTKLELKR
modifications: drug attachment sites not stated (see heavy chain); compound 90 conjugated to the antibody, average 2.7 per antibody; residues not stated

Legend:
Assay in all cases: cell-based or functional assay
[1] = target: T1, folate receptor 1 (FOLR1) (human, UniProt P15328 25-234)
T1 sequence (P15328 25-234): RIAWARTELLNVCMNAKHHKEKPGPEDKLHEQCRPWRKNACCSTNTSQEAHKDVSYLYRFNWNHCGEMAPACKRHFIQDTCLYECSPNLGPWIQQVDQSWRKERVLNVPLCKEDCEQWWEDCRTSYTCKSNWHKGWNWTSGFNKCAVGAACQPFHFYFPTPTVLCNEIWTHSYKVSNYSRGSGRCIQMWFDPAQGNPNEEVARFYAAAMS

[2] = target: T1, folate receptor 1 (FOLR1); remark: listed apart in the source
[3] = target: T1, folate receptor 1 (FOLR1); remark: listed apart in the source
EGFR = EGFR (UniProt P00533 25-1210, limits assumed)

| Binder | IC50, in vitro cytotoxicity (WST-8), Ishikawa cells, conjugate [2] | IC50, in vitro cytotoxicity (WST-8), KB cells, conjugate [2] | IC50, in vitro cytotoxicity (WST-8), NCI-H2110 cells, conjugate [2] | IC50, in vitro cytotoxicity, Ishikawa cells, conjugate + unmodified antibody (1 µM huMOV19) [2] | IC50, in vitro cytotoxicity, KB cells, conjugate + unmodified antibody (1 µM huMOV19) [2] | IC50, in vitro cytotoxicity, NCI-H2110 cells, conjugate + unmodified antibody (1 µM huMOV19) [2] | also measured |
| --- | --- | --- | --- | --- | --- | --- | --- |
| B1 | – | – | – | – | – | – | IC50, in vitro cytotoxicity (WST-8) against KB cells [1]: 4 pM |
| B2 | 0.05 nM | 5 pM | 0.1 nM | 2 nM | 0.8 nM | 7 nM | – |
| B3 | 0.05 nM | 5 pM | 0.1 nM | 1 nM | 1 nM | 4 nM | IC50, in vitro cytotoxicity (WST-8), KB cells, -Block [3]: 4 pM; IC50, in vitro cytotoxicity (WST-8), NCI-H2110 cells, -Block [3]: 20 pM; IC50, in vitro cytotoxicity, KB cells, +Block (1 µM blocking anti-FOLR1 antibody huMOV19) [3]: 800 pM; IC50, in vitro cytotoxicity, NCI-H2110 cells, +Block (1 µM blocking anti-FOLR1 antibody huMOV19) [3]: 10 nM |
| B4 | – | – | – | – | – | – | EC50, in vitro cytotoxicity (WST-8), Detroit-562 cells (EGFR): 16 pM; EC50, in vitro cytotoxicity (WST-8), NCI-H292 cells (EGFR): 12 pM; EC50, in vitro cytotoxicity (WST-8), NCI-H1703 cells (EGFR): 20 pM; EC50, in vitro cytotoxicity, Detroit-562 cells, +block (excess unconjugated huML66 antibody) (EGFR): 2350 pM; EC50, in vitro cytotoxicity, NCI-H292 cells, +block (excess unconjugated huML66 antibody) (EGFR): 1570 pM; EC50, in vitro cytotoxicity, NCI-H1703 cells, +block (excess unconjugated huML66 antibody) (EGFR): 2140 pM |
